Results: publication doi:10.1101/203372

Target: HDAC6-EGFP WT (full-length human histone deacetylase 6 fused to EGFP) (human) (UniProt Q9UBN7)
Experiment: MST

HDAC6-EGFP WT (full-length human histone deacetylase 6 fused to EGFP) (human), sequence (Q9UBN7 whole entry, the tested form may be a part): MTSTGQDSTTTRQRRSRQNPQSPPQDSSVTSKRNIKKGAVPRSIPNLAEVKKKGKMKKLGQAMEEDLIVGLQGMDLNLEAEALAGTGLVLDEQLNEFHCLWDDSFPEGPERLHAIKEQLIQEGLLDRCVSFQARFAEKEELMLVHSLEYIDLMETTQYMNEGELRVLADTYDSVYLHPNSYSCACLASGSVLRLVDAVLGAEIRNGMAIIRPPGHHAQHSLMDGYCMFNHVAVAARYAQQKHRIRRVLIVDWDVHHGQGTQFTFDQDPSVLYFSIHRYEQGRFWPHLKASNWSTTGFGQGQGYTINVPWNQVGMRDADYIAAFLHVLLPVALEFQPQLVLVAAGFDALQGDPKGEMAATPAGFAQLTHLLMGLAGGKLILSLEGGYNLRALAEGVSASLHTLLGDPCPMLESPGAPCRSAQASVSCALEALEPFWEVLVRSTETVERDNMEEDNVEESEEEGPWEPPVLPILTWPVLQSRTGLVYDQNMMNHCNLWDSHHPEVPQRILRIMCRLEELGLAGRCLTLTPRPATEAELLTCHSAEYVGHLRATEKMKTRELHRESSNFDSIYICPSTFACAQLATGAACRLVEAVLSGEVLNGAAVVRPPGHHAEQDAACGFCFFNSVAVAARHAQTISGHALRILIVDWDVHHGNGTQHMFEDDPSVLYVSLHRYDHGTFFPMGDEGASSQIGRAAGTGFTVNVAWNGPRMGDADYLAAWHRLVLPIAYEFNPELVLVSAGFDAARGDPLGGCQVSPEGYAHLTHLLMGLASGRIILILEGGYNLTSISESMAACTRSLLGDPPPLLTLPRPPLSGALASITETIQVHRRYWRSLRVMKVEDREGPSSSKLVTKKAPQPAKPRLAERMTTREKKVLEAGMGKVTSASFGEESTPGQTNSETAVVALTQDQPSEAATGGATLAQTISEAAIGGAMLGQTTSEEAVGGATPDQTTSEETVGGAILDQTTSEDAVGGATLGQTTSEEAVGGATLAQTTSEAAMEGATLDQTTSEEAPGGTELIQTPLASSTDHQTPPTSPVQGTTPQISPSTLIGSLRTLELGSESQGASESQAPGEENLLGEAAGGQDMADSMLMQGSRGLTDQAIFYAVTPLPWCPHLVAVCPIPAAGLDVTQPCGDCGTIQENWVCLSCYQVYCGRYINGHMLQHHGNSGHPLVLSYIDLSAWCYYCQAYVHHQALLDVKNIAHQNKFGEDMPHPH
NEDD8, human, recombinant, His-tag, sequence (Q15843 1-76): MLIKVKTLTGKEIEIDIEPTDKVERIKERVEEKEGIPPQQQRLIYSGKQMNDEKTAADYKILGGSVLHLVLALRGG

Row | fold higher affinity than mono-Ub [fold] | fold lower affinity than mono-Ub [fold] | Substance
1 | 4 | – | K63-linked tetra-Ub (from UniProt P0CG48)
2 | – | 50 | NEDD8, human, recombinant, His-tag (from UniProt Q15843 1-76) (natural protein)
